Measured values from patent publication US20260265410A1 (UNIVERSITY OF FLORIDA RESEARCH FOUNDATION, published 2026).
Substitutions are numbered along the chain they refer to.

Experiments:
[1] = target: T1, human CD105-ECD: amino acid residues Met 1-Gly 586 of human CD105 (Sino bio: Cat: 10149-H02H) (human, UniProt P17813 26-586); experiment: ELISA, absorbance at 405 nm, one condition per Fab and antigen
T1 construct: Bought; also called hCD105-ECD-hFc; hCD105-hFc
T1 sequence: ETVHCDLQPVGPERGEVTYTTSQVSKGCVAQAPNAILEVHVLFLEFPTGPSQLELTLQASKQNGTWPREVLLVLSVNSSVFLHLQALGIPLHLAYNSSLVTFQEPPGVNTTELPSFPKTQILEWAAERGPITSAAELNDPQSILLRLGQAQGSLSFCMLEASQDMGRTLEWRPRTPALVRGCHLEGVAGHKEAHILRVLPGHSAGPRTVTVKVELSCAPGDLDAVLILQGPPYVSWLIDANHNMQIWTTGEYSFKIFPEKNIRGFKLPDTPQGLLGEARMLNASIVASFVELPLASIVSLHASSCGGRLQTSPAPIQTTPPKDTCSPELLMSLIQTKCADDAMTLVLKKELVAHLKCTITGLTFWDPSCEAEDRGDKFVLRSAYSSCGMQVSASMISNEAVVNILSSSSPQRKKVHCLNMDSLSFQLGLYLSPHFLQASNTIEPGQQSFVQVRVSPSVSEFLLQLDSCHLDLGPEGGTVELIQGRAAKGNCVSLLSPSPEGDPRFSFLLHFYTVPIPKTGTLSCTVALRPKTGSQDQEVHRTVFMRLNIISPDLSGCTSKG

[2] = target: T2, human Nectin-2 on the cell surface (U937 cells) (human, UniProt Q92692 32-538); experiment: flow cytometry on whole U937 cells, screen of the 28 clones (Ctrl row = 0); Nectin-2 is named as the antigen on U937 cells only in the later examples
T2 construct: Endogenous Nectin-2 of U937 cells; also called PVRL2; CD112
T2 sequence: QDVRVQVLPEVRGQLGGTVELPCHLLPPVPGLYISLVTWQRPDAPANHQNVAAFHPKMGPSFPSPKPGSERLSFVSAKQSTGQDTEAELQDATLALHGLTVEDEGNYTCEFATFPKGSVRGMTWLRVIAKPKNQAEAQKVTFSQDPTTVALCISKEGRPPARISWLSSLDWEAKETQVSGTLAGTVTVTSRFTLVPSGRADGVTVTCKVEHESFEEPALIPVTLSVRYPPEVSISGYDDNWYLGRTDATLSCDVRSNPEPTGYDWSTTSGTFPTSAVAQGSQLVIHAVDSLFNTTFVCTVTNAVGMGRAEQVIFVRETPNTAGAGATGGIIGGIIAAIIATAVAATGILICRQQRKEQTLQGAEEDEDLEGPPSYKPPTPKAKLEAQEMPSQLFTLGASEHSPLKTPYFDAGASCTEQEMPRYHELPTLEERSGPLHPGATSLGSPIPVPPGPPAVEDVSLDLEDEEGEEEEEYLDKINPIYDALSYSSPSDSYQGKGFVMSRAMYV

[3] = target: T3, N-terminal domain (NTD) of human PTPRG (amino acid residues 20~448 of human PTPRG) (human, UniProt P23470 20-448); experiment: ELISA, one condition per Fab and antigen; y axis 0 to 1.8 without name or unit
T3 construct: also called hPTPRG-NTD; human PTPRG NTD
T3 sequence: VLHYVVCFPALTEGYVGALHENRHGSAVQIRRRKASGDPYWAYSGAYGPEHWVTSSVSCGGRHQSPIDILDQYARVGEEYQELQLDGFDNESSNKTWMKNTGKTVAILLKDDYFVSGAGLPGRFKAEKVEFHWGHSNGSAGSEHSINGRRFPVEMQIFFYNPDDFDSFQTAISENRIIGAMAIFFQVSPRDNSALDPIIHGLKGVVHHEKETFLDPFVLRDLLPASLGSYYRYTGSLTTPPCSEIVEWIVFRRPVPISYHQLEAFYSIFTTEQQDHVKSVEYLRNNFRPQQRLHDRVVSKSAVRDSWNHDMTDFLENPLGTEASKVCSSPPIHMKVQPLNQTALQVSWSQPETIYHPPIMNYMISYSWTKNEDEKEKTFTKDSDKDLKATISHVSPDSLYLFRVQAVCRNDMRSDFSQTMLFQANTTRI

[4] = target: T4, human PTPRG extracellular domain (ECD) (residues 20~736 of human PTPRG) fused to hFc (human, UniProt P23470 20-736); experiment: as above
T4 construct: Produced in-house by transient transfection of Expi293 cells; also called hPTPRG-ECD-hFc; hPTPRG-ECD; not shown: human Fc (hFc)
T4 sequence: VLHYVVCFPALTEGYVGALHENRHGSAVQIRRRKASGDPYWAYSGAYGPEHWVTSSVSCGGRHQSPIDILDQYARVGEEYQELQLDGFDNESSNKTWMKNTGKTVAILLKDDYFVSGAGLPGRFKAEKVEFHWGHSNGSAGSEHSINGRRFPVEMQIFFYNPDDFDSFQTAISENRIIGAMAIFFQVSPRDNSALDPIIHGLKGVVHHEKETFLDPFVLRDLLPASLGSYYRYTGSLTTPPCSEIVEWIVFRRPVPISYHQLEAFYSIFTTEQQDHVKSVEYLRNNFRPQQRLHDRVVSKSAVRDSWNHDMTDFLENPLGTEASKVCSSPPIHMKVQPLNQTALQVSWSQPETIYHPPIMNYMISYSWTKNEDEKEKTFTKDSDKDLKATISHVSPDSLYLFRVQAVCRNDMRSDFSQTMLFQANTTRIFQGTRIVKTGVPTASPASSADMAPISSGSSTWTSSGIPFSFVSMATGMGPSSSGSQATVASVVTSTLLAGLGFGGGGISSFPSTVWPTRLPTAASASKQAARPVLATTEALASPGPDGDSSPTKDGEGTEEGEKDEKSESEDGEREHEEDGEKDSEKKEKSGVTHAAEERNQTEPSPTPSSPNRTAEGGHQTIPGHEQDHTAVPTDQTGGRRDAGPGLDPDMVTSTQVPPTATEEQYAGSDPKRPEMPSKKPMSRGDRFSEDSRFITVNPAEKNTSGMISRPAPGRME

[5] = target: T5, mouse PTPRG ECD (amino acid residues 20-733 of mouse PTPRG) fused to hFc (mouse, UniProt Q05909 20-733); experiment: as above
T5 construct: Produced in-house; also called mPTPRG-ECD; Mouse PTPRG-ECD-hFc; not shown: human Fc (hFc)
T5 sequence: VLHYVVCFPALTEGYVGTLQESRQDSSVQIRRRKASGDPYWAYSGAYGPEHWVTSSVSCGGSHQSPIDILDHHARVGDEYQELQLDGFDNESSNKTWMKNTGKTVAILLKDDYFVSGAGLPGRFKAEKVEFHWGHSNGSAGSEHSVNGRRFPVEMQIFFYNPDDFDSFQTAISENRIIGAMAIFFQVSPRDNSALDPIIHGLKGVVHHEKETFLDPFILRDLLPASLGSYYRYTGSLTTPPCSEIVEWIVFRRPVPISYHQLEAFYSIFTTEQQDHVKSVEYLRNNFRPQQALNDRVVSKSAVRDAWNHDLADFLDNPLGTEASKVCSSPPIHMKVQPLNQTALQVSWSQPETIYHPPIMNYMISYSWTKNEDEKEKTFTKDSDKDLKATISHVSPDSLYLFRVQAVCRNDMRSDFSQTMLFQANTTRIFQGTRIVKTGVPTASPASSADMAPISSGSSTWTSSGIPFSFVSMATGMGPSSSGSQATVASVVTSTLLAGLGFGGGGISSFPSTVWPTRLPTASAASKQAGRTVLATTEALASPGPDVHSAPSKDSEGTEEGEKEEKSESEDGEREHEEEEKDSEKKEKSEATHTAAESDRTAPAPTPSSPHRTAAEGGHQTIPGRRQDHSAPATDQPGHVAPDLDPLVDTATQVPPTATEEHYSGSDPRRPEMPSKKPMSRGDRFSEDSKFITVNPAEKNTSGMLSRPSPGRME

[6] = target: T4, human PTPRG extracellular domain (ECD) …; experiment: ELISA, absorbance at 405 nm, one condition per Fab and antigen
[7] = target: T6, human Nectin-2 extracellular domain (amino acid residues 1-360 of human Nectin-2) fused to hFc (human, UniProt Q92692 32-360); experiment: as above
T6 construct: Bought; also called hNectin-2-ECD-hFc; NECTIN2-ECD-hFc; not shown: human Fc (hFc)
T6 sequence: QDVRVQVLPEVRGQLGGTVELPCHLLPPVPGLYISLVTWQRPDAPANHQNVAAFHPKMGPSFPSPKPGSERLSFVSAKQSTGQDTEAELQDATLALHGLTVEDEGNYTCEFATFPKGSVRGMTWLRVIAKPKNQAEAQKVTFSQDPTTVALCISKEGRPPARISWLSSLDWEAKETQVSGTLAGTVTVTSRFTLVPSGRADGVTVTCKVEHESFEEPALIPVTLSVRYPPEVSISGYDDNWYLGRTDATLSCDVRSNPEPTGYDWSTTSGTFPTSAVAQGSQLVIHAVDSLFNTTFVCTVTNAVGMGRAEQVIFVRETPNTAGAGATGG

[8] = target: T2, human Nectin-2 on the cell surface …; experiment: competition flow cytometry on U937 cells; competitor of 0.5 µg Alexa 647 labelled Fab_2282

B1: Fab_484 (Fab, V domains shown)
VH: AQSLEESGGRLVTPGTPLTLTCTASGFSLSSYHMAWVRQAPGKGLEWIGIISSSGSTYYASWAKGRFTISKTSTTVDLKITSPTTEDTATYFCARGFGWGPNLWGPGTLVTVSS
VL: SFVLTQPASVQVNLGQMVSLTCTADTLSRSYASWYQQKPGQAPVLLIYRDTSRPSGVPDRFSGSTSGNTATLTISGAQAGDEADYYCATDDNSGSSYQYVFGGGTQLTVTG
notes: Chimeric rabbit/human Fab; also called N484
[1]
  binding result: no binding
[2]
  flow cytometry binding value (the table prints no name or unit): 94.8
[3]
  binding result: no binding
[4]
  binding result: no binding
[5]
  binding result: no binding

B2: Fab_2810 (Fab, V domains shown)
VH: QEQLEESGGRLVTPGTPLTLTCTASGFSLTNYYMTWVRQAPGKGLEWIGTIYAGTGSTWYASWVKGRFTISKTSTTVDLKITSPTTEDTATYFCVRGYLGWSSGIENIWGPGTLVTVSS
VL: B1 VL with M17T, T65S, D90S, N92G, S96T, Y97F, Q98H, Y99F
notes: Chimeric rabbit/human Fab; also called E2810; mAb_2810
[6]
  binding result: no binding
[7]
  binding result: no binding
[8]
  binding result: no binding (tested: 5 µg)
